Results from the supplement of paper PMC9112550, “Optimization of the antimicrobial peptide Bac7 by deep mutational scanning” (BMC Biology, 2022).

These sequences were tested on Escherichia coli TOP10 (assay: shrunken log2 fold change of peptide-encoding DNA abundance (4.5 h post-induction vs induction); higher = less antimicrobial activity (less host growth inhibition)). Details: time post-induction: 4.5 h; library: site-saturation at positions 5, 18, 19, 20.
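Note: peptides expressed intracellularly from a pBAD plasmid library in pooled LB shake-flask culture, induced with 0.3% L-arabinose, DNA abundance read by NGS, three biological replicates, DESeq2 with apeglm shrinkage.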

| Sequence | shrunken log2 fold change |
| --- | --- |
| RRIRNRPPRLPRPRPRPSLPPRP | -0.378 |
| RRIRERPPRLPRPRPRPIKLPRP | -0.481 |
| RRIRKRPPRLPRPRPRPQDKPRP | -0.182 |
| RRIRARPPRLPRPRPRPLFVPRP | 0.0919 |
| RRIRARPPRLPRPRPRPKRQPRP | 0.0749 |
| RRIRHRPPRLPRPRPRPTNEPRP | -0.512 |
| RRIRSRPPRLPRPRPRPQREPRP | -0.019 |
| RRIRMRPPRLPRPRPRPNLTPRP | 0.0283 |
| RRIRRRPPRLPRPRPRPEPAPRP | 0.812 |
| RRIRNRPPRLPRPRPRPWWRPRP | -0.0647 |
| RRIRPRPPRLPRPRPRPKIYPRP | -0.000172 |
| RRIRPRPPRLPRPRPRPESTPRP | 0.118 |
| RRIRQRPPRLPRPRPRPELNPRP | 0.0915 |
| RRIRGRPPRLPRPRPRPTTNPRP | 0.878 |
| RRIRQRPPRLPRPRPRPNETPRP | -0.0269 |
| RRIRQRPPRLPRPRPRPFMMPRP | -0.25 |
| RRIRNRPPRLPRPRPRPPRMPRP | 0.24 |
| RRIRIRPPRLPRPRPRPGQDPRP | -0.165 |
| RRIRRRPPRLPRPRPRPEVCPRP | 0.793 |
| RRIRARPPRLPRPRPRPNRKPRP | 0.131 |
| RRIRQRPPRLPRPRPRPCHAPRP | -0.126 |
| RRIRIRPPRLPRPRPRPGYLPRP | 2.69 |
| RRIRTRPPRLPRPRPRPHGWPRP | -0.0327 |
| RRIRQRPPRLPRPRPRPMFFPRP | -0.0364 |
| RRIRWRPPRLPRPRPRPINVPRP | -0.0356 |

| Sequence | shrunken log2 fold change |
| --- | --- |
| RRIRNRPPRLPRPRPRPHYMPRP | -0.389 |
| RRIRKRPPRLPRPRPRPACPPRP | 0.664 |
| RRIRERPPRLPRPRPRPKGLPRP | 0.0211 |
| RRIRVRPPRLPRPRPRPSHPPRP | -0.852 |
| RRIRRRPPRLPRPRPRPCFCPRP | 0.104 |
| RRIRARPPRLPRPRPRPGCFPRP | 0.96 |
| RRIRKRPPRLPRPRPRPADQPRP | -0.0199 |
| RRIRPRPPRLPRPRPRPLVTPRP | -0.302 |
| RRIRCRPPRLPRPRPRPDGAPRP | 0.129 |
| RRIRHRPPRLPRPRPRPGSWPRP | 0.112 |
| RRIRGRPPRLPRPRPRPETQPRP | 2.49 |
| RRIRHRPPRLPRPRPRPIRYPRP | 0.0301 |
| RRIRERPPRLPRPRPRPRPMPRP | -0.0942 |
| RRIRQRPPRLPRPRPRPRNEPRP | -0.199 |
| RRIRQRPPRLPRPRPRPHVMPRP | -0.444 |
| RRIRQRPPRLPRPRPRPFDQPRP | -0.0498 |
| RRIRFRPPRLPRPRPRPFIKPRP | -0.648 |
| RRIRLRPPRLPRPRPRPERHPRP | 0.27 |
| RRIRSRPPRLPRPRPRPKWWPRP | 0.0275 |
| RRIRKRPPRLPRPRPRPTAKPRP | 0.00802 |
| RRIRSRPPRLPRPRPRPYIEPRP | -0.183 |
| RRIRERPPRLPRPRPRPHMAPRP | -0.0803 |
| RRIRTRPPRLPRPRPRPDSSPRP | -0.00751 |
| RRIRRRPPRLPRPRPRPYDHPRP | -0.149 |
| RRIRLRPPRLPRPRPRPHIPPRP | -0.664 |

| Sequence | shrunken log2 fold change |
| --- | --- |
| RRIRPRPPRLPRPRPRPVHVPRP | 0.18 |
| RRIRERPPRLPRPRPRPSAAPRP | 0.133 |
| RRIRNRPPRLPRPRPRPAVAPRP | 0.339 |
| RRIRPRPPRLPRPRPRPSQFPRP | -0.0669 |
| RRIRHRPPRLPRPRPRPHWSPRP | -0.205 |
| RRIRNRPPRLPRPRPRPECFPRP | 0.0864 |
| RRIRPRPPRLPRPRPRPTHQPRP | 0.615 |
| RRIRSRPPRLPRPRPRPHCHPRP | -0.783 |
| RRIRHRPPRLPRPRPRPNVNPRP | -0.555 |
| RRIRMRPPRLPRPRPRPHHYPRP | -0.51 |
| RRIRSRPPRLPRPRPRPLNKPRP | -0.343 |
| RRIRRRPPRLPRPRPRPTCCPRP | 0.397 |
| RRIRTRPPRLPRPRPRPVNFPRP | -0.484 |
| RRIRRRPPRLPRPRPRPTKNPRP | 0.395 |
| RRIRWRPPRLPRPRPRPPWKPRP | 0.24 |
| RRIRCRPPRLPRPRPRPRFQPRP | 0.234 |
| RRIRCRPPRLPRPRPRPLNQPRP | -0.317 |
| RRIRTRPPRLPRPRPRPFSFPRP | -0.341 |
| RRIRQRPPRLPRPRPRPPPHPRP | 0.737 |
| RRIRWRPPRLPRPRPRPMNYPRP | -0.364 |
| RRIRGRPPRLPRPRPRPSQEPRP | 0.172 |
| RRIRRRPPRLPRPRPRPKGMPRP | 0.218 |
| RRIRHRPPRLPRPRPRPGDNPRP | -0.0143 |
| RRIRGRPPRLPRPRPRPHEWPRP | 0.116 |
| RRIRCRPPRLPRPRPRPTDNPRP | -0.58 |

| Sequence | shrunken log2 fold change |
| --- | --- |
| RRIRLRPPRLPRPRPRPDNPPRP | -0.231 |
| RRIRNRPPRLPRPRPRPYIPPRP | -0.36 |
| RRIRKRPPRLPRPRPRPFCCPRP | 0.27 |
| RRIRDRPPRLPRPRPRPVLIPRP | -0.0161 |
| RRIRVRPPRLPRPRPRPYKGPRP | -0.294 |
| RRIRSRPPRLPRPRPRPDKLPRP | -0.266 |
| RRIRWRPPRLPRPRPRPCDGPRP | 0.0333 |
| RRIRARPPRLPRPRPRPLDHPRP | 0.267 |
| RRIRHRPPRLPRPRPRPECCPRP | 0.203 |
| RRIRRRPPRLPRPRPRPPHWPRP | 0.932 |
| RRIRCRPPRLPRPRPRPCYTPRP | -0.397 |
| RRIRPRPPRLPRPRPRPMANPRP | 1.35 |
| RRIRVRPPRLPRPRPRPVWPPRP | 0.257 |
| RRIRVRPPRLPRPRPRPLGSPRP | -0.115 |
| RRIRGRPPRLPRPRPRPCMDPRP | 0.714 |
| RRIRIRPPRLPRPRPRPRENPRP | 0.0178 |
| RRIRRRPPRLPRPRPRPRIGPRP | 0.0791 |
| RRIRTRPPRLPRPRPRPAINPRP | 0.0461 |
| RRIRGRPPRLPRPRPRPHTDPRP | 0.103 |
| RRIRIRPPRLPRPRPRPDYIPRP | -0.183 |
| RRIRFRPPRLPRPRPRPLRMPRP | 0.0542 |
| RRIRGRPPRLPRPRPRPSMVPRP | 0.512 |
| RRIRPRPPRLPRPRPRPVFIPRP | -0.235 |
| RRIRGRPPRLPRPRPRPQCWPRP | 0.623 |
| RRIRARPPRLPRPRPRPQVTPRP | 0.356 |

| Sequence | shrunken log2 fold change |
| --- | --- |
| RRIRTRPPRLPRPRPRPLQRPRP | -0.063 |
| RRIRMRPPRLPRPRPRPDVQPRP | -0.00142 |
| RRIRGRPPRLPRPRPRPVQRPRP | 0.739 |
| RRIRLRPPRLPRPRPRPHYFPRP | -0.404 |
| RRIRQRPPRLPRPRPRPWNNPRP | 0.079 |
| RRIRIRPPRLPRPRPRPFFTPRP | -0.312 |
| RRIRIRPPRLPRPRPRPHTEPRP | 0.0578 |
| RRIRQRPPRLPRPRPRPWCGPRP | -0.00744 |
| RRIRSRPPRLPRPRPRPVKKPRP | 0.0525 |
| RRIRIRPPRLPRPRPRPCVAPRP | -0.288 |
| RRIRARPPRLPRPRPRPDPYPRP | -0.169 |
| RRIRTRPPRLPRPRPRPRLGPRP | 0.169 |
| RRIRLRPPRLPRPRPRPMTTPRP | 0.0748 |
| RRIRNRPPRLPRPRPRPNGTPRP | -0.167 |
| RRIRDRPPRLPRPRPRPYMEPRP | -0.000464 |
| RRIRERPPRLPRPRPRPWEAPRP | 0.74 |
| RRIRCRPPRLPRPRPRPAMMPRP | -0.0414 |
| RRIRLRPPRLPRPRPRPSYYPRP | -0.963 |
| RRIRIRPPRLPRPRPRPVSHPRP | 0.113 |
| RRIRTRPPRLPRPRPRPAVCPRP | 0.712 |
| RRIRSRPPRLPRPRPRPSYNPRP | -0.759 |
| RRIRHRPPRLPRPRPRPPYFPRP | -0.366 |
| RRIRFRPPRLPRPRPRPHEAPRP | -0.377 |
| RRIRPRPPRLPRPRPRPSMKPRP | -0.223 |
| RRIRYRPPRLPRPRPRPHFVPRP | -0.182 |

| Sequence | shrunken log2 fold change |
| --- | --- |
| RRIRHRPPRLPRPRPRPGDPPRP | 0.219 |
| RRIRYRPPRLPRPRPRPEFHPRP | 0.00393 |
| RRIRARPPRLPRPRPRPDQIPRP | 0.327 |
| RRIRTRPPRLPRPRPRPPKYPRP | -0.103 |
| RRIRKRPPRLPRPRPRPHAIPRP | -0.142 |
| RRIRDRPPRLPRPRPRPFAHPRP | 0.228 |
| RRIRCRPPRLPRPRPRPPAAPRP | 1.78 |
| RRIRWRPPRLPRPRPRPSLMPRP | 0.122 |
| RRIRKRPPRLPRPRPRPSDYPRP | -0.08 |
| RRIRKRPPRLPRPRPRPLPYPRP | -0.0627 |
| RRIRPRPPRLPRPRPRPWHMPRP | -0.0632 |
| RRIRWRPPRLPRPRPRPCPNPRP | -0.184 |
| RRIRWRPPRLPRPRPRPIRKPRP | 0.636 |
| RRIRQRPPRLPRPRPRPYAMPRP | -0.341 |
| RRIRHRPPRLPRPRPRPESPPRP | 0.0722 |
| RRIRYRPPRLPRPRPRPHNQPRP | -0.753 |
| RRIRWRPPRLPRPRPRPTGFPRP | 0.645 |
| RRIRERPPRLPRPRPRPTYIPRP | -1.02 |
| RRIRYRPPRLPRPRPRPYDDPRP | -0.129 |
| RRIRGRPPRLPRPRPRPHVYPRP | 0.469 |
| RRIRYRPPRLPRPRPRPRVTPRP | -0.286 |
| RRIRTRPPRLPRPRPRPMRTPRP | 0.276 |
| RRIRIRPPRLPRPRPRPMASPRP | -0.00783 |
| RRIRTRPPRLPRPRPRPEFIPRP | 0.0102 |
| RRIRTRPPRLPRPRPRPMTMPRP | -0.223 |
